Data set [1] deals with HeLa Kyoto. Description: melting temperature (median over replicates), in situ; higher = more thermally stable.
For data set [2], the system named is HeLa Kyoto. Kind of data set: solubility change mitosis vs G1/S (difference of NP-40 vs SDS log2 ratios) (log2 ratio difference); higher = more soluble in mitosis.
In data set [3] the test system is HeLa Kyoto. Description: solubility in G1/S (NP-40 vs SDS abundance) (log2 ratio); higher = more soluble. The conditions noted are these: cell cycle stage: G1/S.
In data set [4] the test system is HeLa Kyoto. Kind of data set: thermal stability score vs G1/S (z-score of summed log2 fold changes over temperatures); higher = more thermally stable than in G1/S.
Where [5] appears, read: cell cycle stage: early G1 (4.5 h after nocodazole release).
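Wherever melting temperature (median over replicates), in situ is given: HeLa Kyoto cells synchronized by double thymidine or nocodazole block, proteins quantified by TMT10plex mass spectrometry, three independent biological replicates.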
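Wherever solubility change mitosis vs G1/S (difference of NP-40 vs SDS log2 ratios) is given: synchronized HeLa Kyoto cells (double thymidine block for G1/S, nocodazole release for mitosis), protein amounts in NP-40 versus SDS lysates quantified by mass spectrometry, three biological replicates.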
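Wherever solubility in G1/S (NP-40 vs SDS abundance) is given: HeLa Kyoto cells arrested at G1/S by double thymidine block, proteins quantified by TMT10plex mass spectrometry in mild NP-40 versus SDS extracts, three biological replicates.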
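Wherever thermal stability score vs G1/S (z-score of summed log2 fold changes over temperatures) is given: synchronized HeLa Kyoto cells, proteins quantified by TMT10plex mass spectrometry, three biological replicates, mitosis taken 0.5 h after nocodazole release, G1/S directly after double thymidine block.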

With “MVVFVGRRLPALLGLFKKKGSAKAENDKHLSVGPGQGPGSAVDEHQDNVFFPSGRPPHLEELHTQAQEGLRSLQHQEKQKLNKGGWDHGDTQSIQSSRTGPDEDNISFCSQTTSYVAESSTAEDALSIRSEMIQRKGSTFRPHDSFPKSGKSGRRRRERRSTVLGLPQHVQKELGLRNEREAPGTPRAPGARDAVRIPTVDGRPRGTSGMGARVSLQALEAEAEAGAETEAMLQRHIDRVYRDDTFVGRSTGTRAPPLTRPMSLAVPGLTGGAGPAEPLSPAMSISPQATYLSKLIPHAVLPPTVDVVALGRCSLRTLSRCSLHSASPASVRSLGRFSSVSSPQPRSRHPSSSSDTWSHSQSSDTIVSDGSTLSSKGGSEGQPESSTASNSVVPPPQGGSGRGSPSGGSTAEASDTLSIRSSGQLSGRSVSLRKLKRPPPPPRRTHSLHQRGLAVPDGPLGLPPKPERKQQPQLPRPPTTGGSEGAGAAPCPPNPANSWVPGLSPGGSRRPPRSPERTLSPSSGYSSQSGTPTLPPKGLAGPPASPGKAQPPKPERVTSLRSPGASVSSSLTSLCSSSSDPAPSDRSGPQILTPLGDRFVIPPHPKVPAPFSPPPSKPRSPNPAAPALAAPAVVPGPVSTTDASPQSPPTPQTTLTPLQESPVISKDQSPPPSPPPSYHPPPPPTKKPEVVVEAPSASETAEEPLQDPNWPPPPPPAPEEQDLSMADFPPPEEAFFSVASPEPAGPSGSPELVSSPAASSSSATALQIQPPGSPDPPPAPPAPAPASSAPGHVAKLPQKEPVGCSKGGGPPREDVGAPLVTPSLLQMVRLRSVGAPGGAPTPALGPSAPQKPLRRALSGRASPVPAPSSGLHAAVRLKACSLAASEGLSSAQPNGPPEAEPRPPQSPASTASFIFSKGSRKLQLERPVSPETQADLQRNLVAELRSISEQRPPQAPKKSPKAPPPVARKPSVGVPPPASPSYPRAEPLTAPPTNGLPHTQDRTKRELAENGGVLQLVGPEEKMGLPGSDSQKELA [KIAA1522]”, the melting temperature in the data set on HeLa Kyoto [1] (cell cycle stage: G1/S) amounted to 52 °C; with HeLa Kyoto [1] (cell cycle stage: mitosis), 52.4 °C. In addition, the “solubility change mitosis (log2)” value with HeLa Kyoto [2] is -0.199. In addition, the “solubility in G1/S (log2)” value with HeLa Kyoto [3] stood at 0.188. In addition, the thermal stability score with HeLa Kyoto [4] (setting [5]) turned out to be 0.117; in the data set with HeLa Kyoto [4] (cell cycle stage: mitosis) it was 0.588.

With “MVVLSVPAEVTVILLDIEGTTTPIAFVKDILFPYIEENVKEYLQTHWEEEECQQDVSLLRKQAEEDAHLDGAVPIPAASGNGVDDLQQMIQAVVDNVCWQMSLDRKTTALKQLQGHMWRAAFTAGRMKAEFFADVVPAVRKWREAGMKVYIYSSGSVEAQKLLFGHSTEGDILELVDGHFDTKIGHKVESESYRKIADSIGCSTNNILFLTDVTREASAAEEADVHVAVVVRPGNAGLTDDEKTYYSLITSFSELYLPSST [ENOPH1]”, the values for the melting temperature with HeLa Kyoto [1] (cell cycle stage: G1/S) and in the data set on HeLa Kyoto [1] (cell cycle stage: mitosis) were 50.6 °C and 50.7 °C, respectively. Further, the “solubility change mitosis (log2)” value in the data set on HeLa Kyoto [2] is -0.175. In addition, the “solubility in G1/S (log2)” value with HeLa Kyoto [3] turned out to be 0.267. The thermal stability score was 2.1 in the data set with HeLa Kyoto [4] (setting [5]) and 3.35 in the data set with HeLa Kyoto [4] (cell cycle stage: mitosis).

Turning to “MVWPWVAMASRWGPLIGLAPCCLWLLGAVLLMDASARPANHSSTRERVANREENEILPPDHLNGVKLEMDGHLNRGFHQEVFLGKDLGGFDEDAEPRRSRRKLMVIFSKVDVNTDRKISAKEMQRWIMEKTAEHFQEAMEESKTHFRAVDPDGDGHVSWDEYKVKFLASKGHSEKEVADAIRLNEELKVDEETQEVLENLKDRWYQADSPPADLLLTEEEFLSFLHPEHSRGMLRFMVKEIVRDLDQDGDKQLSVPEFISLPVGTVENQQGQDIDDNWVKDRKKEFEELIDSNHDGIVTAEELESYMDPMNEYNALNEAKQMIAVADENQNHHLEPEEVLKYSEFFTGSKLVDYARSVHEEF [SDF4]”, the figures for the melting temperature in the data set on HeLa Kyoto [1] (cell cycle stage: G1/S) and with HeLa Kyoto [1] (cell cycle stage: mitosis) were 52.8 °C and 53.9 °C, respectively. Moreover, the “solubility change mitosis (log2)” value in the data set on HeLa Kyoto [2] is -0.0276. Further, the “solubility in G1/S (log2)” value with HeLa Kyoto [3] is 0.52. Besides, the figures for the thermal stability score in the data set with HeLa Kyoto [4] (setting [5]) and with HeLa Kyoto [4] (cell cycle stage: mitosis) were 2.12 and 3, respectively.

For “MWALCSLLRSAAGRTMSQGRTISQAPARRERPRKDPLRHLRTREKRGPSGCSGGPNTVYLQVVAAGSRDSGAALYVFSEFNRYLFNCGEGVQRLMQEHKLKVARLDNIFLTRMHWSNVGGLSGMILTLKETGLPKCVLSGPPQLEKYLEAIKIFSGPLKGIELAVRPHSAPEYEDETMTVYQIPIHSEQRRGKHQPWQSPERPLSRLSPERSSDSESNENEPHLPHGVSQRRGVRDSSLVVAFICKLHLKRGNFLVLKAKEMGLPVGTAAIAPIIAAVKDGKSITHEGREILAEELCTPPDPGAAFVVVECPDESFIQPICENATFQRYQGKADAPVALVVHMAPASVLVDSRYQQWMERFGPDTQHLVLNENCASVHNLRSHKIQTQLNLIHPDIFPLLTSFRCKKEGPTLSVPMVQGECLLKYQLRPRREWQRDAIITCNPEEFIVEALQLPNFQQSVQEYRRSAQDGPAPAEKRSQYPEIIFLGTGSAIPMKIRNVSATLVNISPDTSLLLDCGEGTFGQLCRHYGDQVDRVLGTLAAVFVSHLHADHHTGLPSILLQRERALASLGKPLHPLLVVAPNQLKAWLQQYHNQCQEVLHHISMIPAKCLQEGAEISSPAVERLISSLLRTCDLEEFQTCLVRHCKHAFGCALVHTSGWKVVYSGDTMPCEALVRMGKDATLLIHEATLEDGLEEEAVEKTHSTTSQAISVGMRMNAEFIMLNHFSQRYAKVPLFSPNFSEKVGVAFDHMKVCFGDFPTMPKLIPPLKALFAGDIEEMEERREKRELRQVRAALLSRELAGGLEDGEPQQKRAHTEEPQAKKVRAQ [ELAC2]”, the results for the melting temperature in the data set on HeLa Kyoto [1] (cell cycle stage: G1/S) and in the data set with HeLa Kyoto [1] (cell cycle stage: mitosis) were 56.2 °C and 56.8 °C, respectively. Moreover, the “solubility change mitosis (log2)” value in the data set with HeLa Kyoto [2] was -0.0127. Besides, the “solubility in G1/S (log2)” value in the data set with HeLa Kyoto [3] was 0.0837. For the same sequence, the thermal stability score in the data set on HeLa Kyoto [4] (setting [5]) is -1.66; in the data set with HeLa Kyoto [4] (cell cycle stage: mitosis) it was -2.38.
